# In patent publication US20210380702A1 (Regeneron, published 2021):
# Assays:
# [1] = target: T1, recombinant human PD-L1 expressed with a C-terminal myc-myc-hexahistidine tag (hPD-L1-MMH) (human); assay: SPR, captured mAb, 25 C
# T1 construct: Monomeric PD-L1 reagent; also called hPD-L1-MMH Monomer
# Procedure: (§1) Binding association and dissociation rate constants (kₐ and kd, respectively), equilibrium dissociation constants and dissociation half-lives (KD and t_{1/2}, respectively) of antigen binding to purified anti-PD-L1 monoclonal antibodies were determined using a real-time surface plasmon resonance biosensor assay on a Biacore 4000 instrument. The Biacore sensor surface was either derivatized with polyclonal rabbit anti-mouse antibody (GE, #BR-1008-38) or with monoclonal mouse anti-human Fc antibody (GE, #BR-1008-39) to capture approximately 200-300 RUs of anti-PD-L1 monoclonal antibodies, expressed with either a mouse Fc or with human Fc, respectively. […] Different concentrations of PD-L1 reagents were injected over the anti-PD-L1 monoclonal antibody captured surface at a flow rate of 30 μL/min. The binding of the PD-L1 reagents to the captured monoclonal antibodies was monitored for 3 to 4 minutes while the dissociation of antibody bound PD-L1 reagents was monitored for 10 minutes in HBST running buffer (0.01 M HEPES pH 7.4, 0.15 M NaCl, 3 mM EDTA, 0.05% v/v Surfactant tween-20). Experiments were performed at either 25° C. or 37° C. Kinetic association (kₐ) and dissociation (kd) rate constants were determined by processing and fitting the data to a 1:1 binding model using Scrubber 2.0c curve fitting software. Binding dissociation equilibrium constants (KD) and dissociative half-lives (t_{1/2}) were then calculated from the kinetic rate constants as: KD (M)=kd/kₐ and t_{1/2} (min)=[In2/(60*kd)].
# Human PD-L1 Dimer [2] = target: T2, Human PD-L1 Dimer (human, UniProt Q9NZQ7 19-239); assay: SPR (Biacore), mAb captured, 25C
# T2 construct: also called hPD-L1 dimer; hPD-L1-hFc
# T2 sequence (Q9NZQ7 19-239): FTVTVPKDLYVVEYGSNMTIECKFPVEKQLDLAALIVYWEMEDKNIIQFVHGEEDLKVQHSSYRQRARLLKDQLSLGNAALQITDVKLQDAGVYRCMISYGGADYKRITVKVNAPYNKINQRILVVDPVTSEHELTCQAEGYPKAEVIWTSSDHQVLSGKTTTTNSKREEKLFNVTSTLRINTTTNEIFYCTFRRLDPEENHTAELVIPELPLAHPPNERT
# Procedure: as §1
# [3] = target: T3, recombinant cynomolgus monkey PD-L1 with a C-terminal myc-myc-hexahistidine tag (cynomolgus monkey (Macaca fascicularis)); assay: SPR (Biacore), mAb captured, 25C
# T3 construct: also called MfPD-L1-MMH; MfPD-L1-MMH Monomer
# T3 sequence (chain, as listed by the source limits assumed): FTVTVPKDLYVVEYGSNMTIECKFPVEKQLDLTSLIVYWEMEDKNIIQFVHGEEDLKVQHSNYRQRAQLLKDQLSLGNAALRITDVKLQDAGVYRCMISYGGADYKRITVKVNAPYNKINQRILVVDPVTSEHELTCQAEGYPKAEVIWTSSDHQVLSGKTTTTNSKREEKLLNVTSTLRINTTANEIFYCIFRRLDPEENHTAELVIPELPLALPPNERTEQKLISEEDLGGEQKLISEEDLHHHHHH
# Procedure: as §1
# [4] = target: T4, recombinant human PD-L1 (amino acids 19-239 of NP_054862.1) with a C-terminal myc-myc-hexahistidine tag (human); assay: SPR (Biacore), mAb captured, 37C
# T4 construct: also called hPD-L1-MMH; hPD-L1-MMH Monomer
# T4 sequence (chain, as listed by the source limits assumed): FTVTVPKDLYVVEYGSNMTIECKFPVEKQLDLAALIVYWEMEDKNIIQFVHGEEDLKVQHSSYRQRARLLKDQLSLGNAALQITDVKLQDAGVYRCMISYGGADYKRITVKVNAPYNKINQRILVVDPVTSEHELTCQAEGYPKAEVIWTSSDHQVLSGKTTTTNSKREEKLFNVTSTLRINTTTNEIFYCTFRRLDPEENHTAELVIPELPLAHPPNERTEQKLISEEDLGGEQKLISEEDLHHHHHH
# Procedure: as §1
# Human PD-L1 Dimer [5] = target: T2, Human PD-L1 Dimer; assay: SPR (Biacore), mAb captured, 37C
# Procedure: as §1
# [6] = target: T3, recombinant cynomolgus monkey PD-L1 …; assay: SPR (Biacore), mAb captured, 37C
# Procedure: as §1
Binder,Kd [1],koff [1],kon [1],t1/2 [1],further results
"H1H9382P2 (antibody, human IgG1, V domains shown) VH: EVQLVESGGGLVQPGGSLRLSCAASGFTVGTNFMNWVRQAPGKGLEWVSAIYSGGTANYADSVKGRFTISRDTSRNTLYLQMNSLRTEDTAVYYCARGGGMDVWGQGTTVTVSS VL: not shown",60.6 nM,0.00479 s⁻¹,79000 M⁻¹ s⁻¹,2.4 min,
"H1H9396P2 (antibody, human IgG1, V domains shown) VH: QVQLVQSGAEVEKPGASVKVSCKASGYIFTHYGISWVRQAPGQGLEWVGWISPYNGYTDYAQKLQGRVTLTTDTSTTTAYMELRNLRSDDTAMYYCSRGRGPYWSFDLWGRGTLVTVSS VL: not shown",12.7 nM,0.00218 s⁻¹,172000 M⁻¹ s⁻¹,5.3 min,
"H2aM8312N (antibody, mouse IgG2, V domains shown, also called H2M8312N) VH: QVHLVQSGAEVKKPGASVKVSCKASGYTFTGYYIHWVRQAPGHGLEWMGWLNPNTGTTKYIQNFQGRVTMTRDTSSSTAYMELTRLRSDDTAVYYCARDEDWNYGSWFDTWGQGTLVTVSS VL: not shown",9.51 nM,0.000722 s⁻¹,75900 M⁻¹ s⁻¹,16 min,
"H2aM8309N (antibody, mouse IgG2, V domains shown, also called H2M8309N) VH: not shown VL: DIQMTQSPSSLSASVGDRVTITCRTSQGIRNDLGWYQQKPGKAPKRLIYAASSLQSGVPSRFSGSGSGTEFTLTISSLQPEDFATYYCLQHNNYPYTFGQGTKLEIK",16.3 nM,0.0104 s⁻¹,642000 M⁻¹ s⁻¹,1.1 min,
"H1H9329P (antibody, human IgG1, V domains shown) VH: EVQLVESGGGLVQSGGSLRLSCAASGFTFSSYWMSWVRQAPGKGLEWVANIKQDGSEKYYVDSVKGRFTISRDNAKNSLYLQMNSLRADDTAVYYCARDDIVVVPAPMGYYYYYFGMDVWGQGTTVTVSS VL: DIQMTQSPSSLSASVGDRVTITCRASQGIRNDLGWYQQKPGKAPKRLIYAASSLQSGVPSRFSGSGSGTEFTLTISSLQPEDFATYYCLQHNSYPYTFGQGTKLEIK",75.8 nM,0.134 s⁻¹,1.77e+06 M⁻¹ s⁻¹,0.1 min,
"H2aM8306N (antibody, mouse IgG2, V domains shown, also called H2M8306N) VH: EVQLVESGGGLVQPGGSLRLSCAASGFTFSRFWMSWVRQAPGKGLEWVANINQDGTEKYYVDSVKGRFTISRDNAKNSLYLQMNSLRAGDTAVYYCANTYYDFWSGHFDYWGQGTLVTVSS VL: not shown [H2aM8306N, listing 1 of 2 here]",69.6 nM,0.01 s⁻¹,144000 M⁻¹ s⁻¹,1.2 min,
"H2aM8306N (antibody, mouse IgG2, V domains shown, also called H2M8306N) VH: EVQLVESGGGLVQPGGSLRLSCAASGFTFSRFWMSWVRQAPGKGLEWVANINQDGTEKYYVDSVKGRFTISRDNAKNSLYLQMNSLRAGDTAVYYCANTYYDFWSGHFDYWGQGTLVTVSS VL: not shown [H2aM8306N, listing 2 of 2 here]",,,,,Kd (Human PD-L1 Dimer [2]): 0.418 nM; koff (Human PD-L1 Dimer [2]): 0.000309 s⁻¹; kon (Human PD-L1 Dimer [2]): 739000 M⁻¹ s⁻¹; t1/2 (Human PD-L1 Dimer [2]): 37 min; Kd [3]: 47.7 nM; koff [3]: 0.00788 s⁻¹; kon [3]: 165000 M⁻¹ s⁻¹; t1/2 [3]: 1.5 min; Kd [4]: 172 nM; koff [4]: 0.031 s⁻¹; kon [4]: 180000 M⁻¹ s⁻¹; t1/2 [4]: 0.4 min; Kd (Human PD-L1 Dimer [5]): 0.417 nM; koff (Human PD-L1 Dimer [5]): 0.000416 s⁻¹; kon (Human PD-L1 Dimer [5]): 997000 M⁻¹ s⁻¹; t1/2 (Human PD-L1 Dimer [5]): 28 min; Kd [6]: 134 nM; koff [6]: 0.0368 s⁻¹; kon [6]: 274000 M⁻¹ s⁻¹; t1/2 [6]: 0.3 min
"H2aM8321N (antibody, mouse IgG2, V domains shown, also called H2M8321N) VH: EERLVESGGDLVQPGGSLRLSCAASGITVGTNYMNWVRQAPGKGLEWVSVISSGGNTHYADSVKGRFIMSRQTSKNTLYLQMNSLETEDTAVYYCARGIRGLDVWGQGTMVTVSS VL: DIQMTQSPSSLSASVGDRVTITCRASQSMSSYLNWYQQKPGRAPKLLIFAASSLQSGVPSRFSGSGSGTDFTLTISSLQPEDFATYYCQQSYSTPPITFGQGTRLEIK",34.9 nM,0.00359 s⁻¹,103000 M⁻¹ s⁻¹,3.2 min,
"H2aM8317N (antibody, mouse IgG2, V domains shown, also called H2M8317N) VH: EVQLVESGGGLVQPGGSLRLSCAASGFTVGSNYMNWVRQAPGKGLEWVSVIYSGGSTYYADSVKGRFTISRLTSKNTLYLQMSSLRPEDTAVYYCARGIRGLDVWGQGTTVTVSS VL: DIQMTQSPSSLSASVGDRVTITCRASQTINIYLNWYQQKPGRAPRLLIYAASSLQSGVPSRFSGSGSGTDFTLTISSLQPEDFATYYCHQSYSTPPITFGQGTRLEIK",421 nM,0.0395 s⁻¹,94000 M⁻¹ s⁻¹,0.3 min,
"H1H9387P2 (antibody, human IgG1, V domains shown) VH: QVQLVQSGAEVKKPGSSVKVSCKASGGTFNTYVLSWVRQAPGQGLEWMGEIIPILGAANYAQNFQGRVTFTTDESTNTAYMDLSSLRSEDTAVYYCARDRTSGGFDPWGQGTLVTVSS VL: not shown",22.1 nM,0.0582 s⁻¹,2.64e+06 M⁻¹ s⁻¹,0.2 min,
"H1H9345P2 (antibody, human IgG1, V domains shown) VH: EVQLVESGGGLVQPGGSLRLSCAASGFTISTNYMNWVRQAPGKGLEWVAVIYSSGSTYYIDSVKGRFTISRLTSKNTVYLQMSSLNSEDTAVYYCARGIRGFDIWGQGTMVTVSS VL: not shown",165 nM,0.0149 s⁻¹,90200 M⁻¹ s⁻¹,0.8 min,

# Further binders by falling Kd [1], results first:
Kd [1],koff [1],kon [1],t1/2 [1],Binder,further results
8.04 nM,0.000383 s⁻¹,47600 M⁻¹ s⁻¹,30 min,"H1H9354P2 (antibody, human IgG1, V domains shown) VH: EVQLVESGGGLVQPGGSLRLSCEASGFTVGVNHMNWVRQAPGKGLEWVSVIFSSGRTFYGDYVKGRLTIFRQTSQNTVYLQMNSLRSEDTAIYYCARGIGGLDIWGRGTMVTVSS VL: not shown",
3.5 nM,0.00031 s⁻¹,88600 M⁻¹ s⁻¹,37 min,"H2aM8310N (antibody, mouse IgG2, V domains shown, also called H2M8310N) VH: QVQLVQSGAEVKKPGASVQVSCKASGYSFTGYYIHWVRQAPGQGLEWMGWINPNSGTKKYAHKFQGRVTMTRDTSIDTAYMILSSLISDDTAVYYCARDEDWNFGSWFDSWGQGTLVTVSS VL: DIVMTQTPLSSPVTLGQPASISCRSSQTLVHGDGNTYLSWIQQRPGQPPRLLIYKVSNQFSGVPDRFSGSGAGTDFTLKISRVEAEDVGLYFCMQATHFPITFGQGTRLEIK",
0.492 nM,0.00039 s⁻¹,792000 M⁻¹ s⁻¹,30 min,"H1H9336P (antibody, human IgG1, V domains shown) VH: EVQLVESGGGLVQPGRSLRLSCAASGFTFDDFAMHWVRQAPGKGLEWVSGISWTGGNMDYANSVKGRFTISREDAKNSLYLQMNSLRAADTALYYCVKDIRGIVATGGAFDIWGRGTMVTVSS VL: DIQMTQSPSSLSASVGDRVTISCRASQTISTYLNWFQQKPGKAPKLLIYVVSSLQSGVPSRFSGSGSGTDFTLTISSLQPEDFATYYCQQSYSTPFTFGPGTKVDIK",
0.321 nM,0.000299 s⁻¹,932000 M⁻¹ s⁻¹,39 min,"H1H9364P2 (antibody, human IgG1, V domains shown) VH: EVQLVESGGGLVQPGRSLRLSCAASGFTFDDYALHWVRQAPGKGLEWVSGISWTGGTIDYADSVKGRFTISRDNAKNSLYLQMSSLRTEDTAIYYCTRDIRGNWKYGGWFDPWGQGTLVTVSS VL: not shown",
0.238 nM,0.000223 s⁻¹,937000 M⁻¹ s⁻¹,52 min,"H2aM8323N (antibody, mouse IgG2, V domains shown, also called H2M8323N) VH: QVQLVQSGAEVKMPGSSVRVSCKASGGIFSSSTISWVRQAPGQGLEWMGEIIPVFGTVNYAQKFQDRVIFTADESTTTAYMELSSLKSGDTAVYFCARNWGLGSFYIWGQGTMVTVSS VL: EIVLTQSPGTLSLSPGERATLSCRASQSFNFNYLAWYQQKPGQAPRLLIYGASSRATGIPDRFSGSGSGTDFTLTINRLEPEDFGVFYCQQYESAPWTFGQGTKVEIK",
0.0558 nM,5.17e-05 s⁻¹,925000 M⁻¹ s⁻¹,224 min,"H2aM8314N (antibody, mouse IgG2, V domains shown, also called H2M8314N) VH: EVQLVESGGGVVRPGGSLRLSCAASGFTFDDYGMTWVRQAPGRGLEWVSGIHWHGKRTGYADSVKGRFTISRDNAKKSLYLQMNSLKGEDTALYHCVRGGMSTGDWFDPWGQGTLVIVSS VL: DIQMTQSPSSLSASLGDRVTITCRASQSINSYLNWYQQKPGKAPKLLIYVASSLQSGVPSRFSGSGSGTEFTLTISNLQPEDFATYYCQQSYSTPPITFGQGTRLEIK",
